From publication PMC2820462, “Inhibition of receptor tyrosine kinase signalling by small molecule agonist of T-cell protein tyrosine phosphatase” (BMC Cancer, 2010)

Target: T1, T-cell protein tyrosine phosphatase, 45 kDa form (TC45) (UniProt P17706-2 1-387)
T1 sequence (looked up): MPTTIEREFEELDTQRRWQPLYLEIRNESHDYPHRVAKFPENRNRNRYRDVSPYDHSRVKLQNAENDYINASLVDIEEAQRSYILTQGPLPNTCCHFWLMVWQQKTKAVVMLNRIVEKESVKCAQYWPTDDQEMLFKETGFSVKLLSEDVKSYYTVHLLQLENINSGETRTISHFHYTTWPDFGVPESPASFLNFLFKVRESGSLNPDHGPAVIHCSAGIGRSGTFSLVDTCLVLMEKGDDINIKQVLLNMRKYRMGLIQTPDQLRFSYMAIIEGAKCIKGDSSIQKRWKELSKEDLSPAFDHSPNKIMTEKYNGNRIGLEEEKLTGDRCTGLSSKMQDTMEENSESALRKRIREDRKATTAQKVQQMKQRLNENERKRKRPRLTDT
Assay: cell-based or functional assay

RPLKKKMEK [α1-cyt peptide (α1 cytoplasmic specific sequence lacking the conserved domain, RPLKKKMEK)]
activation of recombinant TC45 in DiFMUP phosphatase assay by 10 μM α1-cyt peptide: 2.4 fold
